Experimental data as given in the RNAGym collection of RNA variant scans (doi:10.1101/gr.219683.116).

B1: mRNA-splicing (parent)
chain: AGUUGCUGCUGGGAGCUCCAGCACAGUGAAAUGGACAGAAGGGCAGAGCAA

Variants of: B1
Assay: exon inclusion enrichment index; higher = more inclusion; WT1 exon 5 minigene, HEK293

Variant	exon inclusion enrichment index
G5A C6G U7G C9A A31U U32G	0.0027
G5A C6G U7G C9A A35C	0.00244
G5A C6G U7G C9A A35C C36A	0.000972
G5A C6G U7G C9A A35C C36G	0.00118
G5A C6G U7G C9A A35C C36U	0.000826
G5A C6G U7G C9A A35G	0.00109
G5A C6G U7G C9A A35G C36A	0.00181
G5A C6G U7G C9A A35G C36G	0.00533
G5A C6G U7G C9A A35G C36U	0.00169
G5A C6G U7G C9A A35U	0.000728
G5A C6G U7G C9A A35U C36A	0.001
G5A C6G U7G C9A A35U C36G	0.00119
G5A C6G U7G C9A A35U C36U	0.000752
G5A C6G U7G C9A A37C	0.00434
G5A C6G U7G C9A A37C G38A	0.00086
G5A C6G U7G C9A A37C G38C	0.00112
G5A C6G U7G C9A A37C G38U	0.000751
G5A C6G U7G C9A A37G	0.00135
G5A C6G U7G C9A A37G G38A	0.0012
G5A C6G U7G C9A A37G G38C	0.00203
G5A C6G U7G C9A A37G G38U	0.000981
G5A C6G U7G C9A A37U	0.00604
G5A C6G U7G C9A A37U G38A	0.00155
G5A C6G U7G C9A A37U G38C	0.00236

Variant	exon inclusion enrichment index
G5A C6G U7G C9A A37U G38U	0.00105
G5A C6G U7G C9A A39C	0.00101
G5A C6G U7G C9A A39C A40C	0.0091
G5A C6G U7G C9A A39C A40G	0.0112
G5A C6G U7G C9A A39C A40U	0.00672
G5A C6G U7G C9A A39G	0.00219
G5A C6G U7G C9A A39G A40C	0.00397
G5A C6G U7G C9A A39G A40G	0.0132
G5A C6G U7G C9A A39G A40U	0.00199
G5A C6G U7G C9A A39U	0.000789
G5A C6G U7G C9A A39U A40C	0.0022
G5A C6G U7G C9A A39U A40G	0.00317
G5A C6G U7G C9A A39U A40U	0.00155
G5A C6G U7G C9A A40C	0.00374
G5A C6G U7G C9A A40C G41A	0.00061
G5A C6G U7G C9A A40C G41C	0.0197
G5A C6G U7G C9A A40C G41U	0.00114
G5A C6G U7G C9A A40G	0.00228
G5A C6G U7G C9A A40G G41A	0.0007
G5A C6G U7G C9A A40G G41C	0.0252
G5A C6G U7G C9A A40G G41U	0.00052
G5A C6G U7G C9A A40U	0.00193
G5A C6G U7G C9A A40U G41A	0.000658
G5A C6G U7G C9A A40U G41C	0.0209

Variant	exon inclusion enrichment index
G5A C6G U7G C9A A40U G41U	0.000481
G5A C6G U7G C9A A45C	0.00288
G5A C6G U7G C9A A45C G46A	0.000901
G5A C6G U7G C9A A45C G46C	0.00399
G5A C6G U7G C9A A45C G46U	0.0014
G5A C6G U7G C9A A45G	0.00308
G5A C6G U7G C9A A45G G46A	0.0107
G5A C6G U7G C9A A45G G46C	0.00144
G5A C6G U7G C9A A45G G46U	0.00135
G5A C6G U7G C9A A45U	0.00141
G5A C6G U7G C9A A45U G46A	0.00219
G5A C6G U7G C9A A45U G46C	0.00134
G5A C6G U7G C9A A45U G46U	0.000766
G5A C6G U7G C9A A47C	0.0181
G5A C6G U7G C9A A47C G48A	0.011
G5A C6G U7G C9A A47C G48C	0.00224
G5A C6G U7G C9A A47C G48U	0.00274
G5A C6G U7G C9A A47G	0.00123
G5A C6G U7G C9A A47G G48A	0.000837
G5A C6G U7G C9A A47G G48C	0.000801
G5A C6G U7G C9A A47G G48U	0.000624
G5A C6G U7G C9A A47U	0.00119
G5A C6G U7G C9A A47U G48A	0.00057
G5A C6G U7G C9A A47U G48C	0.000966

Variant	exon inclusion enrichment index
G5A C6G U7G C9A A47U G48U	0.000738
G5A C6G U7G C9A C16A	0.00192
G5A C6G U7G C9A C16A U17A	0.00207
G5A C6G U7G C9A C16A U17C	0.00344
G5A C6G U7G C9A C16A U17G	0.00129
G5A C6G U7G C9A C16G	0.00149
G5A C6G U7G C9A C16G U17A	0.00122
G5A C6G U7G C9A C16G U17C	0.00106
G5A C6G U7G C9A C16G U17G	0.0104
G5A C6G U7G C9A C16U	0.000705
G5A C6G U7G C9A C16U U17A	0.00236
G5A C6G U7G C9A C16U U17C	0.000766
G5A C6G U7G C9A C16U U17G	0.0132
G5A C6G U7G C9A C18A	0.000986
G5A C6G U7G C9A C18A C19A	0.0013
G5A C6G U7G C9A C18A C19G	0.00131
G5A C6G U7G C9A C18A C19U	0.00126
G5A C6G U7G C9A C18G	0.00165
G5A C6G U7G C9A C18G C19A	0.00169
G5A C6G U7G C9A C18G C19G	0.0012
G5A C6G U7G C9A C18G C19U	0.00119
G5A C6G U7G C9A C18U	0.000744
G5A C6G U7G C9A C18U C19A	0.00106
G5A C6G U7G C9A C18U C19G	0.00111

Variant	exon inclusion enrichment index
G5A C6G U7G C9A C18U C19U	0.00102
G5A C6G U7G C9A C19A	0.00105
G5A C6G U7G C9A C19A A20C	0.00131
G5A C6G U7G C9A C19A A20G	0.00156
G5A C6G U7G C9A C19A A20U	0.00128
G5A C6G U7G C9A C19G	0.00133
G5A C6G U7G C9A C19G A20C	0.00232
G5A C6G U7G C9A C19G A20G	0.00172
G5A C6G U7G C9A C19G A20U	0.00167
G5A C6G U7G C9A C19U	0.00126
G5A C6G U7G C9A C19U A20C	0.00291
G5A C6G U7G C9A C19U A20G	0.00155
G5A C6G U7G C9A C19U A20U	0.00173
G5A C6G U7G C9A C22A	0.00351
G5A C6G U7G C9A C22A A23C	0.0031
G5A C6G U7G C9A C22A A23G	0.000928
G5A C6G U7G C9A C22A A23U	0.00131
G5A C6G U7G C9A C22G	0.00114
G5A C6G U7G C9A C22G A23C	0.000809
G5A C6G U7G C9A C22G A23G	0.00134
G5A C6G U7G C9A C22G A23U	0.000928
G5A C6G U7G C9A C22U	0.000826
G5A C6G U7G C9A C22U A23C	0.000879
G5A C6G U7G C9A C22U A23G	0.00203

Variant	exon inclusion enrichment index
G5A C6G U7G C9A C22U A23U	0.00262
G5A C6G U7G C9A C24A	0.00195
G5A C6G U7G C9A C24A A25C	0.0413
G5A C6G U7G C9A C24A A25G	0.0011
G5A C6G U7G C9A C24A A25U	0.00166
G5A C6G U7G C9A C24G	0.00883
G5A C6G U7G C9A C24G A25C	0.00471
G5A C6G U7G C9A C24G A25G	0.00108
G5A C6G U7G C9A C24G A25U	0.00102
G5A C6G U7G C9A C24U	0.00094
G5A C6G U7G C9A C24U A25C	0.0183
G5A C6G U7G C9A C24U A25G	0.00148
G5A C6G U7G C9A C24U A25U	0.000784
G5A C6G U7G C9A C36A	0.000983
G5A C6G U7G C9A C36A A37C	0.00188
G5A C6G U7G C9A C36A A37G	0.00191
G5A C6G U7G C9A C36A A37U	0.00282
G5A C6G U7G C9A C36G	0.000918
G5A C6G U7G C9A C36G A37C	0.00103
G5A C6G U7G C9A C36G A37G	0.00376
G5A C6G U7G C9A C36G A37U	0.00107
G5A C6G U7G C9A C36U	0.00174
G5A C6G U7G C9A C36U A37C	0.000996
G5A C6G U7G C9A C36U A37G	0.00557

Variant	exon inclusion enrichment index
G5A C6G U7G C9A C36U A37U	0.00084
G5A C6G U7G C9A C44A	0.00167
G5A C6G U7G C9A C44A A45C	0.00399
G5A C6G U7G C9A C44A A45G	0.0102
G5A C6G U7G C9A C44A A45U	0.0154
G5A C6G U7G C9A C44G	0.00206
G5A C6G U7G C9A C44G A45C	0.00471
G5A C6G U7G C9A C44G A45G	0.00929
G5A C6G U7G C9A C44G A45U	0.00421
G5A C6G U7G C9A C44U	0.000609
G5A C6G U7G C9A C44U A45C	0.00286
G5A C6G U7G C9A C44U A45G	0.00135
G5A C6G U7G C9A C44U A45U	0.000761
G5A C6G U7G C9A G11A	0.000945
G5A C6G U7G C9A G11A G12A	0.00145
G5A C6G U7G C9A G11A G12C	0.00102
G5A C6G U7G C9A G11A G12U	0.000779
G5A C6G U7G C9A G11C	0.00307
G5A C6G U7G C9A G11C G12A	0.000679
G5A C6G U7G C9A G11C G12C	0.00959
G5A C6G U7G C9A G11C G12U	0.00113
G5A C6G U7G C9A G11U	0.00542
G5A C6G U7G C9A G11U G12A	0.00148
